Sequences and labels used below:
B1: CXCL4_HUMAN (ligand)
chain: EAEEDGDLQCLCVKTTSQVRPRHITSLEVIKAGPHCPTAQLIATLKNGRKICLDLQAPLYKKIIKKLLES
B2: P1172_IXORI (other)
chain: LHEDEIFTVDYCGTNCTKQSNGSWTTCPGNCSCYHEDGKTDGFCLSTEYTDFTQFPNLTSEEMDAATPRPE

For one assay, the target named is P1080_IXORI (Ixodes ricinus, UniProt A0A090XBL6 20-118). The assay can be described thus: BLI [Cont.].
The target of the next assay is T1, P1095_IXORI (Ixodes ricinus, UniProt A0A0K8RCE3 24-112).
T1 sequence: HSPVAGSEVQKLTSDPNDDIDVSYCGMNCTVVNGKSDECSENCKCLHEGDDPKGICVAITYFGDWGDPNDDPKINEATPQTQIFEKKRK
The assay can be described thus: BLI [Cont.].

For the next assay, the target named is T2, P1096_IXORI (Ixodes ricinus, UniProt A0A0K8RKE4 24-114).
T2 sequence: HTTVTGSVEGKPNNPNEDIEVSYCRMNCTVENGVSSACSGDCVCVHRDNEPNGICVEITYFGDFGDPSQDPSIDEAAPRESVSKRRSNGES
Description: BLI [Cont.].

In the next assay the target is T3, P1127_IXORI (Ixodes ricinus, UniProt A0A0K8RJ67 29-108).
T3 sequence: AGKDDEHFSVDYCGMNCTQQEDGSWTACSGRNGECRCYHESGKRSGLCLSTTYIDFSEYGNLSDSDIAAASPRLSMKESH
Description: BLI [Cont.].

The target of the next assay is T4, P1128_IXORI (Ixodes ricinus, UniProt A0A0K8R6B3 19-90).
T4 sequence: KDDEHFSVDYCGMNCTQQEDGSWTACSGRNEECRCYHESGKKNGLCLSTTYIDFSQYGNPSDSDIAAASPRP
The assay can be described thus: BLI [Cont.].

In another assay the target is T5, P1132_IXORI (Ixodes ricinus, UniProt V5GZ08 29-106).
T5 sequence: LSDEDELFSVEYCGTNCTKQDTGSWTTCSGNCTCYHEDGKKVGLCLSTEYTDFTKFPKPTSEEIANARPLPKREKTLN
Description: BLI [Cont.].

The next assay addresses T6, P1134_IXORI (Ixodes ricinus, UniProt A0A0K8RAI0 32-135).
T6 sequence: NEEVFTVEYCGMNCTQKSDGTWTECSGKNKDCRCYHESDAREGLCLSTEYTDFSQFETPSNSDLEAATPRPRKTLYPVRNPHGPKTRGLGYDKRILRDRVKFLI
The assay can be described thus: BLI [Cont.].

The next assay addresses T7, P1142_AMBCA (Amblyomma cajennense, UniProt A0A023FBW4 26-97).
T7 sequence: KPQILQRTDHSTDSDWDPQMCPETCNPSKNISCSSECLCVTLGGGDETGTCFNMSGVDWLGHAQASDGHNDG
The assay can be described thus: BLI [Cont.].

Another assay addresses T8, P1162_IXORI (Ixodes ricinus, UniProt A0A0K8RDJ1 29-99).
T8 sequence: B2 chain with H2N, E3D, D4E, I6L, K18Q, S20P
Description: BLI [Cont.].

For another assay, the target named is T9, P1166_IXORI (Ixodes ricinus, UniProt A0A0K8RE99 25-110).
T9 sequence: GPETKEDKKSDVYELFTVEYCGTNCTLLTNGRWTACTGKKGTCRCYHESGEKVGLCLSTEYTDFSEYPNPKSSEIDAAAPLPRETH
The assay can be described thus: BLI [Cont.].

The next assay addresses T10, P1168_IXORI (Ixodes ricinus, UniProt A0A0K8RCU3 25-106).
T10 sequence: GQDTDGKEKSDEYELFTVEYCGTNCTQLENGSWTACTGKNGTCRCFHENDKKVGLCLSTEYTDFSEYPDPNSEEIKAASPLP
Description: BLI [Cont.].

Another assay concerns the target T11, P1170_IXORI (Ixodes ricinus, UniProt A0A0K8RD51 29-102).
T11 sequence: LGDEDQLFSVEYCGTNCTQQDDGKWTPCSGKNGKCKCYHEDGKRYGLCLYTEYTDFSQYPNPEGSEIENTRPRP
The assay can be described thus: BLI [Cont.].

The target of the assay “P1172_IXORI” is B2. Description: BLI [Cont.].
The next assay deals with T12, P1174_IXORI (Ixodes ricinus, UniProt V5I3C5 28-104).
T12 sequence: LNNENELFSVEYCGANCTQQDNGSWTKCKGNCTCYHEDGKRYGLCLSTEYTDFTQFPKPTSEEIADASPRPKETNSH
The assay can be described thus: BLI [Cont.].

The next assay addresses T13, P1229_IXORI (Ixodes ricinus, UniProt A0A0K8R4R9 32-108).
T13 sequence: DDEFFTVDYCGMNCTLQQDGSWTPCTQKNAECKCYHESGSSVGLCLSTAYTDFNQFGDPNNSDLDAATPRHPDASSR
Description: BLI [Cont.].

Another assay addresses T14, P1156_IXORI (Ixodes ricinus, UniProt V5HBW0 29-108).
T14 sequence: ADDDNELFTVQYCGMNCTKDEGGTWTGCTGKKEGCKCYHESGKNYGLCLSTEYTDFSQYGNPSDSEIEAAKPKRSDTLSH
The assay can be described thus: BLI [Cont.) C].

The target in the next assay is T15, CXCL9_HUMAN (human, UniProt Q07325 23-125).
T15 sequence: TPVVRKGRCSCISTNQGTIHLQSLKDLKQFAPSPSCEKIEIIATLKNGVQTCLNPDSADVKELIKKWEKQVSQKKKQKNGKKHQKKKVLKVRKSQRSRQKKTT
Description: BLI. A general note: In BLI a coated tip is dipped into the sample, and binding shifts an interference pattern.

A further assay concerns the target T16, CXCL10_HUMAN (human, UniProt P02778 22-98).
T16 sequence: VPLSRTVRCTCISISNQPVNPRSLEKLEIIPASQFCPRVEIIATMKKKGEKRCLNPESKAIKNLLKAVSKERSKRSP
Description: BLI.

A further assay addresses T17, CXCL11_HUMAN (human, UniProt O14625 22-94).
T17 sequence: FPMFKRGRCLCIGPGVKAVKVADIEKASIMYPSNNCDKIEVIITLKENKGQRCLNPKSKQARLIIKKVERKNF
Description: BLI.

The next assay has as its target CXCL12_HUMAN (human, UniProt P48061 22-89). The assay can be described thus: BLI.
The target in a further assay is T18, CXCL13_HUMAN (human, UniProt O43927 23-109).
T18 sequence: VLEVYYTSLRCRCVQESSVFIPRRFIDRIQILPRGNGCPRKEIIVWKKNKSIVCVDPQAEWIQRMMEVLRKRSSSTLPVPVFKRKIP
The assay can be described thus: BLI.

The next assay addresses T19, CXCL14_HUMAN (human, UniProt O95715 35-111).
T19 sequence: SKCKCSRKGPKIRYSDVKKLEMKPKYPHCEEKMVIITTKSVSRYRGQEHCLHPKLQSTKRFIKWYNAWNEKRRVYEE
Description: BLI.

A further assay has as its target T20, CXCL3_HUMAN (human, UniProt P19876 35-107).
T20 sequence: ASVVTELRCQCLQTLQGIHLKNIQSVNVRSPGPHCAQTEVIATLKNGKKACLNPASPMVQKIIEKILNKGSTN
Description: BLI [Cont.].

The target in the next assay is T21, CXCL2_HUMAN (human, UniProt P19875 35-107).
T21 sequence: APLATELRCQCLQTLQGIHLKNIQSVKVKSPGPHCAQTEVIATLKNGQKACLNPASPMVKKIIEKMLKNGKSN
Description: BLI [Cont.].

Another assay addresses T22, CXCL6_HUMAN (human, UniProt P80162 38-114).
T22 sequence: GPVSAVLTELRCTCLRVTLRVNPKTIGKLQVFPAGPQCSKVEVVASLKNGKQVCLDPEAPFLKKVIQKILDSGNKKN
The assay can be described thus: BLI [Cont.].

Another assay deals with T23, CXCL1_HUMAN (human, UniProt P09341 35-107).
T23 sequence: T21 sequence with P2S, L3V, L20P, K27N, Q48R, M58I, K68N, N69S, G70D
The assay can be described thus: yeast surface display FACS re-test.

The target of another assay is T24, CXCL8_HUMAN (human, UniProt P10145 28-99).
T24 sequence: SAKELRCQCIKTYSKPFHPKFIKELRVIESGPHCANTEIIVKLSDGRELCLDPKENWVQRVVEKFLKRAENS
Description: yeast surface display FACS re-test.

Positions count from the first letter of the chain named.

Sequence of CXCL12_HUMAN (P48061 22-89 limits assumed): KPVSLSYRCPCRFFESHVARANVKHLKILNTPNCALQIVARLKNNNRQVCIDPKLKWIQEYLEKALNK
Sequence of P1080_IXORI (A0A090XBL6 20-118): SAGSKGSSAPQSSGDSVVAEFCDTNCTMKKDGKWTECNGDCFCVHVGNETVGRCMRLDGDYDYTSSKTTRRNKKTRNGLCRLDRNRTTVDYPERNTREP

One may read the Kd as the concentration at which binding is half-saturated. In the case of B1, the Kd is 2310 nM with P1080_IXORI and 381 nM with P1142_AMBCA. The binding result with P1095_IXORI, in the assay with P1096_IXORI, with P1127_IXORI, in the assay with P1128_IXORI, in the assay with P1132_IXORI and with P1134_IXORI was “no binding (tested: 300 nM)” each time. Also, the binding result with P1162_IXORI, with P1166_IXORI, with P1168_IXORI, with P1170_IXORI, with P1172_IXORI and with P1174_IXORI was “no binding (tested: 300 nM)” each time. Besides, the binding result with P1229_IXORI and with P1156_IXORI was “no binding (tested: 300 nM)” in each case.

As to B2, the binding result with CXCL9_HUMAN, with CXCL10_HUMAN, in the assay with CXCL11_HUMAN, in the assay with CXCL12_HUMAN, with CXCL13_HUMAN and in the assay with CXCL14_HUMAN was “no binding (tested: 300 nM)” throughout. The binding result with CXCL3_HUMAN and with CXCL6_HUMAN was “no binding (tested: 300 nM)” each time. For the same molecule, in the assay with CXCL2_HUMAN, the Kd stood at 26 nM. The “% cells over threshold fluorescence” value was found to be 65% with CXCL1_HUMAN and 41% with CXCL8_HUMAN.

These data come from patent US20240034757A1 (OXFORD UNIVERSITY INNOVATION, published 2024).
